# Assay results reported in patent US20130011386A1.
# Target: FcγRIIIa (human) (UniProt P08637)
# Assay: cell-based or functional assay
# FcγRIIIa (human), sequence (P08637 17-208 limits assumed): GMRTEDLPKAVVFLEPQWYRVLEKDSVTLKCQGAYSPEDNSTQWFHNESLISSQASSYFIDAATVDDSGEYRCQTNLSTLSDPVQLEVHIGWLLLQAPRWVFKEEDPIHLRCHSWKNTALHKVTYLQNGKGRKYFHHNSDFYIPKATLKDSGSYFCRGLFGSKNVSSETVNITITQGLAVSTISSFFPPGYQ
ADCC EC50 [ng/mL],ADCC fold (EC50 IgG1 wt/EC50 construct) [fold],Substance
0.14,,"2h S239D/K326A/E333A (construct 16), anti-CD142 antibody"
5.6,0.08,"2h S267E/I332E (construct 17), anti-CD142 antibody"
0.42,1,"IgG1 wt (construct 1), anti-CD142 antibody with wild type human IgG1 constant region"

# Target: FcγRIIIa (human) (UniProt P08637)
# Assay: cell-based or functional assay
# Remark: another data set of the same source
ADCC EC50 [ng/mL],ADCC fold (EC50 IgG1 wt/EC50 construct) [fold],"ADCC (shift in apparent EC50 against IgG1 wt), PBMC effectors, MDA-MB-231 targets [fold]",Substance
0.31,15,,"2h F243L/R292P/Y300L (construct 7), anti-CD142 antibody"
0.47,10,,"2h G237A/S239D/I332E (construct 12, X = A), anti-CD142 antibody"
21,0.2,,"2h K326A/E333A (construct 11), anti-CD142 antibody"
0.7,,,"2h S239D/H268F/S324T/I332E (construct 9), anti-CD142 antibody"
0.53,9,8,"2h S239D/I332E (construct 5), anti-CD142 antibody"
4.8,,,"IgG1 wt (construct 1), anti-CD142 antibody with wild type human IgG1 constant region"
